Measurements taken from patent US20050059089A1 (priority 2003, published 2005).
No end group written: not given here.

Assays:
[1] = target: T1, GPCR142 (Homo sapiens, UniProt Q8TDU9, L329S); assay: Inhibition of forskolin-stimulated cAMP (CRE-β-galactosidase) in SK-N-MC cells; assay type: cell-based; set-up: The complete coding region of human GPCR142 was PCR-amplified from human genomic DNA; expressed in transfected cells; HEK293 co-transfected with Gqi5 (Ca2+); settings: SK-N-MC cells stably expressing GPCR142
T1 sequence (Q8TDU9 whole entry L329S): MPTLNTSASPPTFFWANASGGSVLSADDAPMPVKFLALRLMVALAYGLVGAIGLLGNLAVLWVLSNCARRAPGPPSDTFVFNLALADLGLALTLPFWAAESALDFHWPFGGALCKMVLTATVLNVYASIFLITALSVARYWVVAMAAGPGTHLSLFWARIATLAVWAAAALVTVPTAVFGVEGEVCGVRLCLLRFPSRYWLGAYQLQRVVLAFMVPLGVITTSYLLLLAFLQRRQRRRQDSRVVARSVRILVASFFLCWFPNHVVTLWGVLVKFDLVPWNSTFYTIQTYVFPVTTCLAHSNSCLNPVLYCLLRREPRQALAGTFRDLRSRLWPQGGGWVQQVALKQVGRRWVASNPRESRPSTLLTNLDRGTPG
Procedure: SK-N-MC cells stably expressing GPCR142 were established by transfection of GPCR142 expressing plasmids into SK-N-MC cells harboring a β-galactosidase gene under control of multiple cAMP responsive elements. The stable transfectants were selected by culturing the transfected cells under G418 selection (400 mg/L). The receptor expressing cells were seeded in 96-well plates at a cell density of 30,000 cells/well. After 24 h, cells were stimulated with forskolin or different peptides. Cells were cultured for an additional 6 h and the intracellular β-gal activity, which represents the intracellular cAMP accumulation, was measured as described by Liu et al. (2000), Mol. Pharmacol., 59, 420-426.

[2] = target: T1, GPCR142; assay: GTPγS binding assay, GPCR142 expressing cell membranes; assay type: biochemical; set-up: The complete coding region of human GPCR142 was PCR-amplified from human genomic DNA; expressed in transfected cells; CHO membranes (GTPγS); HEK293 co-transfected with Gα16 (Ca2+)
Procedure: The GPCR142 expression vector described above was transfected into CHO cells using Lipofectamine (Invitrogen) according to the manufacturer's instructions. Two days after transfection, the cells were harvested and the cell membranes were prepared by homogenizing the cells in cold 50 mM Tris-HCl, 5 mM EDTA, pH 7.5 followed by centrifugation at 4° C. 1000 g for 10 min. The supernatant was centrifuged at 4° C. 20,000 g for 30 min and the pellet was re-suspended in GTPγS binding buffer: 50 mM Tris-HCl, pH 7.4, 10 mM MgCl2, 1 mM EDTA, pH 8.0, and 100 mM NaCl using a polytron tissue homogenizer. Protease inhibitors were added to the buffer at concentrations of 1 mM PMSF, 10 μg/ml of pepstatin A, 10 μg/ml of leupeptin. Cell membranes and different concentrations of ligands were added to 96-well plates and incubated at room temperature for 20 min. ^35S-GTPγS (NEN) was then added to each well at a final concentration of […] in a final volume of 200 μL. The reactions were allowed to proceed at room temperature for 1 h, and then the mixtures were filtered though a 96-well GFC filter plate (Packard) and washed with cold washing buffer: 50 mM Tris-HCl, pH 7.4, 10 mM MgCl2. Fifty microliters of Microscint-40 (Packard) was added to each well and the plate was counted on a top counter (TopCount NTX, Packard).

[3] = target: T1, GPCR142; assay: Radioligand binding assay with 125I-relaxin3 (saturation and competition), COS-7 cell membranes; set-up: The complete coding region of human GPCR142 was PCR-amplified from human genomic DNA; expressed in transfected cells; settings: competition binding, COS-7 membranes
Procedure: (§1) The binding mixtures were incubated at room temperature for 1 h and then were filtered through 96-well GFC plates (Packard) and washed with ice-cold washing buffer: 50 mM Tris-HCl, pH 7.4. Fifty microliters of Microscint-40 were added to each well and the plates were counted in a Topcounter NTX (Packard). The radioligand binding results were analyzed using GraphPad PRISM software.
The binding assays were performed at room temperature for an incubation time of one hour. The binding mixtures were then filtered through GFC filters pre-saturated with 0.3 polyethylenimine (Sigma) and washed with cold binding buffer. The bound radioligand was counted in a top counter (TopCount/NTX, Packard) with Microscint-40. The results were analyzed by Prism 3.0 software.

[4] = target: T1, GPCR142; assay: Ca2+ mobilization assay (FLIPR), HEK293 cells co-expressing GPCR142 and Gα16; assay type: cell-based; set-up: The complete coding region of human GPCR142 was PCR-amplified from human genomic DNA; expressed in transfected cells; HEK293 co-transfected with Gα16 (Ca2+)
Procedure: Human embryonic kidney (HEK) 293 cells were transfected with GPCR135,.GPCR142 or co-transfected with Gqi5 (Conklin et al. (1993), Nature 363, 274-280) or Gα16 (Amatruda et al. (1991), Proc. Natl. Acad. Sci. U.S.A. 88, 5587-5591) expressing plasmids using LipofectAmine. Two days after transfection, cells were detached with PBS plus 10 mM EDTA. The detached cells were washed with DMEM-F12 medium (without phenol red, Invitrogen) and seeded in black poly-D lysine coated 96-well plates (BD Biosciences, San Jose, Calif.) at a cell density of 50,000 cell/well.

[5] = target: T2, human GPCR142 (human, UniProt Q8TDU9 1-374); assay: competition binding with ^125I-relaxin3, membranes of COS-7 cells expressing GPCR142
T2 construct: Expressed in COS-7, CHO, SK-N-MC or HEK293 cells
T2 sequence (Q8TDU9 whole entry L329S): as above
Procedure: as §1, with “(Packard).” for “(Packard). The radioligand binding results were analyzed using GraphPad PRISM software.”

[6] = target: T2, human GPCR142; assay: saturation radioligand binding, membranes of COS-7 cells transiently expressing GPCR142
Procedure: as §1, with “(Packard).” for “(Packard). The radioligand binding results were analyzed using GraphPad PRISM software.”

[7] = target: T2, human GPCR142; assay: competition binding with ^125I-relaxin3, membranes of COS-7 cells transiently expressing GPCR142
Procedure: as §1, with “(Packard).” for “(Packard). The radioligand binding results were analyzed using GraphPad PRISM software.”

[8] = target: T2, human GPCR142; assay: cell-based or functional assay

Molecule: CC[C@H](C)[C@@H]1NC(=O)[C@H](Cc2ccccc2)NC(=O)[C@H](CCC(=O)O)NC(=O)[C@H](CCCNC(=N)N)NC(=O)CNC(=O)[C@@H](NC(=O)[C@H](CC(C)C)NC(=O)[C@H](CCCNC(=N)N)NC(=O)[C@@H](NC(=O)CNC(=O)[C@H](Cc2ccc(O)cc2)NC(=O)[C@@H]2CCCN2C(=O)[C@H](C)NC(=O)[C@H](C)NC(=O)[C@@H](N)CCCNC(=N)N)C(C)C)CSSC[C@@H](C(=O)NCC(=O)NCC(=O)N[C@@H](CO)C(=O)N[C@@H](CCCNC(=N)N)C(=O)N[C@@H](Cc2c[nH]c3ccccc23)C(=O)O)NC(=O)[C@H]([C@@H](C)O)NC(=O)[C@H](Cc2ccccc2)NC(=O)[C@H]([C@@H](C)CC)NC(=O)[C@H](C(C)C)NC(=O)[C@H](C)NC(=O)[C@H](CCCNC(=N)N)NC1=O [relaxin3 B-chain, reference compound]
- inhibition of forskolin induced β-galactosidase expression [1]: showed ligand activity, albeit with a significantly lower potency
- stimulation of 35S-GTPγS binding (agonist activity) [2]: stimulate
- displacement of 125I-relaxin3 binding to GPCR142 [3]: displaced

Molecule: INSL5: Human INSL5 (SEQ ID NO: 5), recombinantly expressed in COS-7 cells, relaxin/insulin superfamily peptide (KESVRLCGLEYIRTVIYICASSRWQDLQTLCCTDGCSMTDLSALC; ends and bridges not checked; cysteine pairing not given here; listed as Homo sapiens)
- stimulation of Ca2+ mobilization [4]: stimulated Ca2+ mobilization
- inhibition of forskolin induced β-galactosidase expression [1]: dose-dependently inhibits
- stimulation of 35S-GTPγS binding (agonist activity) [2]: stimulated GTPγS binding
- displacement of 125I-relaxin3 binding to GPCR142 [3]: specifically displaced

B1: Porcine relaxin (ligand)
chain 1: QSTNDFIKACGRELVRLWVEICGSVSWGRTAL
chain 2: RMTLSEKCCQVGCIRKDIARLC
notes: The results paragraph prints only 'relaxin'
- binding result [5]: no binding

B2: ^125I-relaxin3 (ligand)
chain 1: RAAPYGVRLCGREFIRAVIFTCGGSRW
chain 2: DVLAGLSSSCCKWGCSKSEISSLC
modifications: ends and bridges not checked; also: 125I label, residue not given here
notes: also called radioligand; tracer
- Kd [6]: 1.9 nM

B3: relaxin3 A-chain (peptide, UniProt Q8WXF3 119-142, looked up)
peptide: DVLAGLSSSCCKWGCSKSEISSLC
modifications: ends and bridges not checked; also: oxidized
notes: domain: A-chain; Bought peptide; also called oxidized relaxin-3 A-chain peptide
- binding result [5]: no binding

B4: Human INSL4 (ligand)
chain 1: AELRGCGPRFGKHLLSYCPMPEKTFTTTPGGWL
chain 2: SGRHRFDPFCCEVICDDGTSVKLCT
- binding result [5]: no binding

B5: relaxin3 B-chain (peptide, UniProt Q8WXF3 26-52, looked up)
peptide: RAAPYGVRLCGREFIRAVIFTCGGSRW
modifications: not fully specified (bridges); ends and bridges not checked; also: oxidized
notes: domain: B-chain; Bought peptide; also called oxidized relaxin-3 B-chain peptide
- Ki [7]: 85 nM
- EC50, GTPγS binding assay [8]: ~100 nM
